{
  "source": "patent US20250000973A1",
  "about": "(Novartis, published 2025)",
  "target": "T1, BCMA (TNFRSF17), human plasma membrane protein array (human, UniProt Q02223 1-184)",
  "T1 construct": "also called B-cell maturation antigen",
  "T1 sequence (looked up)": "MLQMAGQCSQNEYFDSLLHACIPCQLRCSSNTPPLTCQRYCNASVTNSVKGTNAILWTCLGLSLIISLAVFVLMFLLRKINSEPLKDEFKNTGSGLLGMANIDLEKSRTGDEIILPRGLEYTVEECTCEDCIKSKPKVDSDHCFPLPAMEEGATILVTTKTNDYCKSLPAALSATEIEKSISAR",
  "experiment": "commercial human plasma membrane protein array",
  "data": [
    {"binder": "anti-human BCMA single chain antibody variable fragment (scFv) (PI61) (scFv, also called PI61 scFv) scFv: QVQLQESGGGVVQPGRSLRLSCAASGFTFSSYGMHWVRQAPGKGLEWVAVISYDGSNKYYADSVKGRFTISRDNSKNTLYLQMNSLRAEDTAVYYCGGSGYALHDDYYGLDVWGQGTLVTVSSGGGGSGGGGSGGGGSQSALTQPASVSGSPGQSITISCTGTSSDVGGYNYVSWYQQHPGKAPKLMIYDVSNRPSGVSNRFSGSKSGNTASLTISGLQAEDEADYYCSSYTSSSTLYVFGSGTKVTVL", "values": [
      {"measurement": "binding result", "result": "binds"}
    ]}
  ]
}
